The results in this text go back to patent US20100249021A1.

Common to all, as to test: cell-based or functional assay
Experiment [1] has as its target membrane protein HA of recombinant avian influenza virus QH-WSN (HA of H5N1 strain A/bar-headed goose/Qinghai/1/05) (avian influenza virus H5N1, strain A/bar-headed goose/Qinghai/1/05).
The target in experiment [2] is membrane protein HA of recombinant human influenza virus A/WSN/33 (H1N1) (human influenza virus A/WSN/33 (H1N1)) (UniProt P03454).
The target of experiment [3] is membrane protein HA of recombinant avian influenza virus QH-WSN (HA of H5N1 strain A/bar-headed goose/Qinghai/1/05) (avian influenza virus H5N1, strain A/bar-headed goose/Qinghai/1/05). This is another data set of the same source.
The target in experiment [4] is membrane protein HA of recombinant human influenza virus A/WSN/33 (H1N1) (human influenza virus A/WSN/33 (H1N1)) (UniProt P03454). This is another data set of the same source.

Turning to “fusion protein HR1-EGFP expressed on the membrane of MDCK cells (from UniProt P08138 251-272)”, the plaque inhibitory rate on cells expressing the fusion protein came to 25% in experiment [1] and 11% in experiment [2].

For “fusion protein HR2-EGFP expressed on the membrane of MDCK cells (from UniProt P08138 251-272)”, the results for the plaque inhibitory rate on cells expressing the fusion protein in experiment [1] and in experiment [2] were 57.8% and 43%, respectively.

B1: polypeptide HR1 combined with HR2A (peptide)
peptide 1: KESTQKAIDGVTNKVNSIIDK
peptide 2: RRIENLNKKMEDGFLDVWTY
Regarding B1, the IC50, plaque inhibition on MDCK cells, peptide combination in experiment [3] turned out to be 43.6 µM; in experiment [4] it was 52.9 µM.

B2: polypeptide HR1 combined with HR2B (peptide)
peptide 1: KESTQKAIDGVTNKVNSIIDK
peptide 2: NAELLVLMENERTLDFHDSNVKN
B2: the IC50, plaque inhibition on MDCK cells, peptide combination in experiment [3] turned out to be 36.7 µM; in experiment [4], 62.5 µM.

B3: polypeptide HR1 combined with HR2C (peptide)
peptide 1: KESTQKAIDGVTNKVNSIIDK
peptide 2: FHDSNVKNLYDKVRLQ
Consider B3, for which the IC50, plaque inhibition on MDCK cells, peptide combination in experiment [3] is 41.6 µM; in experiment [4], 30 µM.
